# Test results reported in publication PMC9915745 (ArXiv, 2023).
# B1: E. coli periplasmic chaperone HdeA, wild type (natural protein)
# chain: ADAQKAADNKKPVNSWTCEDFLAVDESFQPTAVGFAEALNNKDKPEDAVLDVQGIATVTPAIVQACTQDKQANFKDKVKGEWDKIKKDM
# modifications: native disulfide between Cys18 and Cys66
# Target: the molecule itself
# Test: SEC-MALS
protein,measurement,value
B1,stoichiometry N,2
